Measured values as given in patent publication US20230103793A1 (DYNE THERAPEUTICS, published 2023).

How the values were obtained:
recombinant human TfR1 = target: T1, recombinant human TfR1 (human, UniProt P02786 89-760); experiment: ELISA, conjugate against unconjugated antibody
T1 construct: Recombinant huTfR1 coated on ELISA plates or used in the immunoprecipitation; also called huTfR1; hTfR1

recombinant cyno TfR1 = target: T2, recombinant cyno TfR1 (cynomolgus monkey (Macaca fascicularis), UniProt Q5RDH6 87-760 (Pongo abelii entry), limits assumed); experiment: ELISA, conjugate against unconjugated antibody
T2 construct: Recombinant cynoTfR1 coated on ELISA plates; also called cTfR1; cynomolgus monkey TfR1
T2 chain: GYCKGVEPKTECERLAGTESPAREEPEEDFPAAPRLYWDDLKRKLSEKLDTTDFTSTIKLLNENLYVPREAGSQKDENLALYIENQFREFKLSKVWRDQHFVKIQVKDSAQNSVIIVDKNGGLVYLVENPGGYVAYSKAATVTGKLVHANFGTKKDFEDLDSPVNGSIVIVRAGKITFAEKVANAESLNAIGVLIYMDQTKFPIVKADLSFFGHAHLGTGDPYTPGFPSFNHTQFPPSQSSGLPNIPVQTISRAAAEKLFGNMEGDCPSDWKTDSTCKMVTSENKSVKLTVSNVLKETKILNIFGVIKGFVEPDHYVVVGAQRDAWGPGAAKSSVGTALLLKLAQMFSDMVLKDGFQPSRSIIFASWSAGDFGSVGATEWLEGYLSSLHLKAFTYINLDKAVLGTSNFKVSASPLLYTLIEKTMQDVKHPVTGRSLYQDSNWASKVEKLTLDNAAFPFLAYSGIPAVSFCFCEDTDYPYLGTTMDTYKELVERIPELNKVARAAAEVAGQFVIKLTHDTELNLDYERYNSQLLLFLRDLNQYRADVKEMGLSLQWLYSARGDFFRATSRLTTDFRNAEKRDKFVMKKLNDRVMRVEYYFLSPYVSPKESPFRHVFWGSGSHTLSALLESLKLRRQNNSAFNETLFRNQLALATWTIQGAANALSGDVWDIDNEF

fold increase of binding upon conjugation (against unconjugated anti-TfR) (recombinant human TfR1): 3 to 6 fold | fold increase of binding upon conjugation (against unconjugated anti-TfR) (recombinant cyno TfR1): 3 to 6 fold
B1: anti-TfR (VH of SEQ ID NO: 17 and VL of SEQ ID NO: 18) conjugated to a DMPK-targeting oligonucleotide (control DMPK-ASO) (antibody, V domains shown)
VH: QVQLVQSGAEVKKPGESLKISCKGSGYSFTSYWIGWVRQMPGKGLEWMGIIYPGDSDTRYSPSFQGQVTISADKSISTAYLQWSSLKASDTAMYYCARFPYDSSGYYSFDYWGQGTLVTVSS
VL: not shown
modifications: DMPK-targeting antisense oligonucleotide linked through a cathepsin-cleavable Val-Cit linker to the ε-amine of lysine of the antibody (site and chain not stated)
notes: In the uptake assay several different DMPK-targeting oligonucleotides were used and the conjugates were also labeled with Cypher5e; also called anti-TfR in conjugates with a DMPK targeting oligo; oligonucleotide-conjugated anti-TfR
